Laboratory results: publication PMC4936685

Biological target: Recombinant human latent TGF-β1 (small latent complex, SLC: LAP with mature TGF-β1) (human) (UniProt P01137)
Experiment: SPR; Biacore 3000; LAP or latent TGF-β1 amine-coupled to a CM5 chip (1000 RU); PSG9-Fc injected at 6, 4, 2, 1, 0.5 and 0.25 μM, 10 μl/min, 25°C, HBS-EP (0.01 M HEPES pH 7.4, 0.15 M NaCl, 3 mM EDTA, 0.005% P20); 1:1 Langmuir model

Chain of UniProt P01137 (P01137 whole entry, one chain of several): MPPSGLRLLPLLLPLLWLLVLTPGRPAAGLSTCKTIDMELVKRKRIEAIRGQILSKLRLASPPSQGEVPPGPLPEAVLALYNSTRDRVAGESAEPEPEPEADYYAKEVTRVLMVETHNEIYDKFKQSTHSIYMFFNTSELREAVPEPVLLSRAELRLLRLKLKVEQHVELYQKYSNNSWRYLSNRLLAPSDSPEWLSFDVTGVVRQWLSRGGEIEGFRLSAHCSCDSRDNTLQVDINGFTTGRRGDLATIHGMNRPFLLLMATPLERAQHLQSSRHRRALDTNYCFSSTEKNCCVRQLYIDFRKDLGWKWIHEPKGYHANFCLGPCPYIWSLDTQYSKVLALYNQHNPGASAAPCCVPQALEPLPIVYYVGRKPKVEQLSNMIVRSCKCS

Kd: 560 nM
koff: 0.00065 s⁻¹
kon: 1150 M⁻¹ s⁻¹
Substance: PSG9-Fc (recombinant human pregnancy-specific glycoprotein 9 with the N, A1, A2 and B2 domains, fused to the Fc of human IgG1) (from UniProt Q00887-1 35-426) (Fc fusion)
